The text below walks through data of publication PMC10101081, “EBR-5, a Novel Variant of Metallo-β-Lactamase EBR from Multidrug-Resistant Empedobacter stercoris” (Microbiology Spectrum, 2023).

A value given as a limit tells only on which side of the number the result lay.

Data set [1] has as its target T1, EBR-5 (Empedobacter stercoris, UniProt A0ABX1WID8).
T1 construct: gene bla; 234-residue precursor; N-terminal signal peptide removed (predicted cleavage between 17 and 18, AFG-QI)
The experiment in a line: beta-lactamase inhibition assay. It is filed as biochemical.

Data set [2] relates to C[C@@H](O)[C@H]1C(=O)N2C(C(=O)O)=C(S[C@@H]3CN[C@H](CNS(N)(=O)=O)C3)[C@H](C)[C@H]12. The experiment in a line: steady-state hydrolysis kinetics, Michaelis-Menten fit. It is filed as biochemical, Empedobacter stercoris. The source says: (§1) steady-state hydrolysis kinetics, Michaelis-Menten fit on EBR-5
The test system of data set [3] is C[C@@H](O)[C@H]1C(=O)N2C(C(=O)O)=C(S[C@@H]3CN[C@H](C(=O)N(C)C)C3)[C@H](C)[C@H]12. The data set is described as above. It is filed as biochemical, Empedobacter stercoris.
Excerpt: as §1

Data set [4] deals with CC1(C)S[C@@H]2[C@H](NC(=O)[C@H](N)c3ccccc3)C(=O)N2[C@H]1C(=O)O. The description is as above. It is filed as biochemical, Empedobacter stercoris.
Excerpt: as §1

The subject of data set [5] is CC(C)(O/N=C(\C(=O)N[C@@H]1C(=O)N2C(C(=O)[O-])=C(C[n+]3ccccc3)CS[C@H]12)c1csc(N)n1)C(=O)O. Described as above. It is filed as biochemical, Empedobacter stercoris.
Excerpt: as §1

Data set [6] relates to CO/N=C(\C(=O)N[C@@H]1C(=O)N2C(C(=O)[O-])=C(C[N+]3(C)CCCC3)CS[C@H]12)c1csc(N)n1. The data set is described as above. It is filed as biochemical, Empedobacter stercoris.
Excerpt: as §1

Data set [7] concerns CO/N=C(\C(=O)N[C@@H]1C(=O)N2C(C(=O)O)=C(COC(C)=O)CS[C@H]12)c1csc(N)n1. The data set is described as above. It is filed as biochemical, Empedobacter stercoris.
Excerpt: as §1

Data set [8] concerns C[C@@H](O)[C@H]1C(=O)N2C(C(=O)O)=C(SCCN=CN)C[C@H]12. The description is as above. It is filed as biochemical, Empedobacter stercoris.
Excerpt: as §1

In data set [9] the test system is CC(=O)OCC1=C(C(=O)O)N2C(=O)[C@@H](NC(=O)Cc3cccs3)[C@H]2SC1. The description is as above. It is filed as biochemical, Empedobacter stercoris.
Excerpt: as §1

Data set [10] relates to C[C@@H](O)[C@H]1C(=O)N2C(C(=O)O)=C(S[C@@H]3CN[C@H](C(=O)Nc4cccc(C(=O)O)c4)C3)[C@H](C)[C@H]12. The description is as above. It is filed as biochemical, Empedobacter stercoris.
Excerpt: as §1

Data set [11] deals with O=C(Cc1cccs1)N[C@@H]1C(=O)N2C(C(=O)O)=C(/C=C/c3ccc([N+](=O)[O-])cc3[N+](=O)[O-])CS[C@H]12. Described as above. The class given is biochemical, Empedobacter stercoris.
Excerpt: as §1

Data set [12] relates to CC1(C)S[C@@H]2[C@H](NC(=O)Cc3ccccc3)C(=O)N2[C@H]1C(=O)O. Described as above. The class given is biochemical, Empedobacter stercoris.
Excerpt: as §1

The subject of data set [13] is CO/N=C(\C(=O)N[C@@H]1C(=O)N2C(C(=O)O)=C(COC(N)=O)CS[C@H]12)c1ccco1. The description is as above. It is filed as biochemical, Empedobacter stercoris.
Excerpt: as §1

Data set [14] concerns CO[C@@]1(NC(=O)Cc2cccs2)C(=O)N2C(C(=O)O)=C(COC(N)=O)CS[C@@H]21. The description is as above. The class given is biochemical, Empedobacter stercoris.
Excerpt: as §1

With `O=C(O)CN(CCN(CC(=O)O)CC(=O)O)CC(=O)O` [EDTA], it took 130 µM to reach half-maximal inhibition in data set [1] (IC50).

Turning to `O=C(O)[C@H]1/C(=C/CO)O[C@@H]2CC(=O)N21` [clavulanic acid], the IC50 (commonly the concentration that inhibits the measured activity by half) in [1] was greater than 2000 µM.

On to EBR-5 (Empedobacter stercoris), for which the Michaelis-Menten constant (Km) (in general, the substrate concentration at which the rate is half of its maximum) in [2] is 1,283 ± 161 μM; in data set [3], 626 ± 61 µM; in data set [4], 207 ± 21 µM; in data set [5] it was 567 ± 76 µM; in data set [6] it was 1,058 ± 58 μM; in data set [7] it was 29 ± 3.9 µM. For the same compound, the Michaelis constant (Km) in [8] was 1,218 ± 147 μM; in [9], 64 ± 6.4 µM; in data set [10] it was 1,507 ± 175 μM; in data set [11] it was 15 ± 1.7 µM; in data set [12], 116 ± 16 µM; in data set [13], 19 ± 2.3 µM. In data set [14], the Km stood at 182 ± 12 µM. Moreover, the kcat (usually the number of substrate molecules converted per active site and unit of time at saturation) in [2] is 145 ± 14 s⁻¹; in data set [3], 147 ± 8.3 s⁻¹; in [4], 118 ± 3.3 s⁻¹; in [5], 0.9 ± 0.09 s⁻¹; in data set [6] it was 0.1 ± 0.01 s⁻¹; in data set [7], 2.8 ± 0.1 s⁻¹. Moreover, the kcat in [8] came out at 124 ± 10 s⁻¹; in data set [9], 27 ± 0.8 s⁻¹; in [10] it was 151 ± 13 s⁻¹; in data set [11], 18 ± 0.5 s⁻¹; in data set [12], 86 ± 2.8 s⁻¹; in [13], 2.1 ± 0.07 s⁻¹. In addition, the catalytic constant (kcat) in [14] was 1.5 ± 0.04 s⁻¹. Also, the kcat/Km – broadly, the second-order rate constant that governs catalysis at low substrate concentration – in [2] came out at 113000 M⁻¹ s⁻¹; in data set [3], 236000 M⁻¹ s⁻¹; in data set [4], 572000 M⁻¹ s⁻¹; in data set [5], 1600 M⁻¹ s⁻¹; in data set [6], 100 M⁻¹ s⁻¹; in [7], 94000 M⁻¹ s⁻¹. The kcat/Km in data set [8] was 102000 M⁻¹ s⁻¹; in data set [9] it was 419000 M⁻¹ s⁻¹; in data set [10], 100000 M⁻¹ s⁻¹; in [11] it was 1.17e+06 M⁻¹ s⁻¹; in [12], 745000 M⁻¹ s⁻¹; in data set [13] it was 111000 M⁻¹ s⁻¹. For the same compound, the kcat/Km in data set [14] was found to be 8500 M⁻¹ s⁻¹.
